One assay has as its target radiolabeled ICAM-1 (UniProt P05362 28-532, radiolabelled). Nature of the assay: bacterial extracts blotted and probed with radiolabeled ICAM-1.
Assay [1] has as its target T1, Sequestrin GST-R(0-IV) fusion protein (Plasmodium falciparum).
T1 construct: The five domains R0-RIV are said to represent the entirety of amino acids H42-A458; also called domain combination R(0-IV); not shown: glutathione S-transferase fusion partner encoded by vector pGEX-3X (Pharmacia), followed by a Factor Xa site
T1 chain: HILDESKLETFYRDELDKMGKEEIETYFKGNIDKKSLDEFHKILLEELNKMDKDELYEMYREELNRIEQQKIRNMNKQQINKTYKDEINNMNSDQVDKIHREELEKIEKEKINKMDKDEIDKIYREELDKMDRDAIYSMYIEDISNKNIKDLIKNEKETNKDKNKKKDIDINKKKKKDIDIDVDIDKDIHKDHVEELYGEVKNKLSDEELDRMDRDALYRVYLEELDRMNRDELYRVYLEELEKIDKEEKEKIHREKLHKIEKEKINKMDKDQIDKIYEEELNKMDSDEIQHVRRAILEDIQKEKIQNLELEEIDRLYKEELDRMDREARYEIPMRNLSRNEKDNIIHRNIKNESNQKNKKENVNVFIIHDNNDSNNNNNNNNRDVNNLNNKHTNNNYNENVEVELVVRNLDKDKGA
Nature of the assay: competition of 125I-CD36 binding to plate-coated GST-R(0-IV) by unlabeled CD36, gamma counting.

Sequence of radiolabeled ICAM-1 (P05362 28-532 limits assumed): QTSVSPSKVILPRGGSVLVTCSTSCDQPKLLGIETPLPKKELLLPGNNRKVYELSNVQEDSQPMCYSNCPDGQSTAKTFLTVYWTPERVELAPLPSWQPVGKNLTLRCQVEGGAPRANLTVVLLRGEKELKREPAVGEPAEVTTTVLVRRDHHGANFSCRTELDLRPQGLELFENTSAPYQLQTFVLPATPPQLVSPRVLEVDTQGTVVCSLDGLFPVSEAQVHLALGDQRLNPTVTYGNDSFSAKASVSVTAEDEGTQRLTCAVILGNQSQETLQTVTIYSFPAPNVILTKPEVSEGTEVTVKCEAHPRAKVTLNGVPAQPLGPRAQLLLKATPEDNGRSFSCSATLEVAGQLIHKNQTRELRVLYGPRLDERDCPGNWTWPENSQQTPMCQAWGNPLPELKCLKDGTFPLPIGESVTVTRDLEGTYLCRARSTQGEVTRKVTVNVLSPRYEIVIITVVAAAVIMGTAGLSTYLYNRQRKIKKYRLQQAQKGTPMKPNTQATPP

B1: trpE fusion protein representing Sequestrin amino acids H42-A458 (other)
chain: HILDESKLETFYRDELDKMGKEEIETYFKGNIDKKSLDEFHKILLEELNKMDKDELYEMYREELNRIEQQKIRNMNKQQINKTYKDEINNMNSDQVDKIHREELEKIEKEKINKMDKDEIDKIYREELDKMDRDAIYSMYIEDISNKNIKDLIKNEKETNKDKNKKKDIDINKKKKKDIDIDVDIDKDIHKDHVEELYGEVKNKLSDEELDRMDRDALYRVYLEELDRMNRDELYRVYLEELEKIDKEEKEKIHREKLHKIEKEKINKMDKDQIDKIYEEELNKMDSDEIQHVRRAILEDIQKEKIQNLELEEIDRLYKEELDRMDREARYEIPMRNLSRNEKDNIIHRNIKNESNQKNKKENVNVFIIHDNNDSNNNNNNNNRDVNNLNNKHTNNNYNENVEVELVVRNLDKDKGA
notes: Tested in a bacterial extract, blotted
B1: the binding result in the assay with radiolabeled ICAM-1 is recorded as “no binding”.

B2: CD36 (purified) (receptor)
chain: GCDRNCGLIAGAVIGAVLAVFGGILMPVGDLLIQKTIKKQVVLEEGTIAFKNWVKTGTEVYRQFWIFDVQNPQEVMMNSSNIQVKQRGPYTYRVRFLAKENVTQDAEDNTVSFLQPNGAIFEPSLSVGTEADNFTVLNLAVAAASHIYQNQFVQMILNSLINKSKSSMFQVRTLRELLWGYRDPFLSLVPYPVTTTVGLFYPYNNTADGVYKVFNGKDNISKVAIIDTYKGKRNLSYWESHCDMINGTDAASFPPFVEKSQVLQFFSSDICRSIYAVFESDVNLKGIPVYRFVLPSKAFASPVENPDNYCFCTEKIISKNCTSYGVLDISKCKEGRPVYISLPHFLYASPDVSEPIDGLNPNEEEHRTYLDIEPITGFTLQFAKRLQVNLLVKPSEKIQVLKNLKRNYIVPILWLNETGTIGDEKANMFRSQVTGKINLLGLIEMILLSVGVVMFVAFMISYCACRSKTIK
modifications: 125I-labelled where used as probe
notes: Purified protein, a gift from Dr. N. Tandon; Used 125I-labelled in solution or coated on plates or dishes; also called 125I-CD36; radiolabelled human CD36
B2: the Ki – broadly, the equilibrium dissociation constant of an inhibitor or competing ligand from its target – in assay [1] was about 6 nM.
